Results taken from US20050003347A1, “Domain-exchanged binding molecules, methods of use and methods of production” (priority 2003, published 2005).

Each compound was assayed on Mab 2G12 binding to gp120JR-FL (assay: Competition ELISA: inhibition of 2G12 binding to gp120JR-FL by carbohydrates). Details: 2G12 1 μg/ml.
Parameters: species or system HIV-1
Description: Competition enzyme-linked immunosorbent assays (ELISAs) were performed to determine the relative inhibition constants of different carbohydrates on 2G12. GP120JR-FL was first captured onto microtiter plate wells (flat bottom, Costar type 3690; Corning Inc.). Subsequently serial dilutions of Man9GlcNAc2, Manα1-2Man, mannose, and other mono- and disaccharides were added to the wells in the presence of 2G12 (1 μg/ml). Subsequent blocking, washing, and detection steps were performed as described in (13).

Compound | inhibition of 2G12 binding to gp120 (in words)
O=C(CO)[C@@H](O)[C@H](O)[C@H](O)CO [Fructose] | better inhibitor than mannose

Same assay, conditions: relative to Manα1-2Man; 2G12 1 μg/ml

Compound | inhibition of Mab 2G12 binding to gp120JR-FL compared to the disaccharide Manα1-2Man
CC(=O)N[C@H]1[C@H](O[C@H]2[C@H](O)[C@@H](NC(C)=O)C(O)O[C@@H]2CO)O[C@H](CO)[C@@H](O[C@@H]2O[C@H](CO[C@H]3O[C@H](CO[C@H]4O[C@H](CO)[C@@H](O)[C@H](O)[C@@H]4O[C@H]4O[C@H](CO)[C@@H](O)[C@H](O)[C@@H]4O)[C@@H](O)[C@H](O[C@H]4O[C@H](CO)[C@@H](O)[C@H](O)[C@@H]4O[C@H]4O[C@H](CO)[C@@H](O)[C@H](O)[C@@H]4O)[C@@H]3O)[C@@H](O)[C@H](O[C@H]3O[C@H](CO)[C@@H](O)[C@H](O)[C@@H]3O[C@H]3O[C@H](CO)[C@@H](O)[C@H](O)[C@@H]3O[C@H]3O[C@H](CO)[C@@H](O)[C@H](O)[C@@H]3O)[C@@H]2O)[C@@H]1O (stereo partly drawn) [Man9GlcNAc2] | over 50 fold

Same assay, conditions: relative to mannose; 2G12 1 μg/ml

Compound | inhibition of Mab 2G12 binding to gp120JR-FL compared to mannose (relative IC50)
CC(=O)N[C@H]1[C@H](O[C@H]2[C@H](O)[C@@H](NC(C)=O)C(O)O[C@@H]2CO)O[C@H](CO)[C@@H](O[C@@H]2O[C@H](CO[C@H]3O[C@H](CO[C@H]4O[C@H](CO)[C@@H](O)[C@H](O)[C@@H]4O[C@H]4O[C@H](CO)[C@@H](O)[C@H](O)[C@@H]4O)[C@@H](O)[C@H](O[C@H]4O[C@H](CO)[C@@H](O)[C@H](O)[C@@H]4O[C@H]4O[C@H](CO)[C@@H](O)[C@H](O)[C@@H]4O)[C@@H]3O)[C@@H](O)[C@H](O[C@H]3O[C@H](CO)[C@@H](O)[C@H](O)[C@@H]3O[C@H]3O[C@H](CO)[C@@H](O)[C@H](O)[C@@H]3O[C@H]3O[C@H](CO)[C@@H](O)[C@H](O)[C@@H]3O)[C@@H]2O)[C@@H]1O (stereo partly drawn) [Man9GlcNAc2] | over 200 fold

What follows are compounds tested against HIV-1 gp120 JR-FL (HIV-1 (JR-FL)) (assay: ELISA, crude Fab on gp120JR-FL; apparent affinity wt/mutant x100%). Details: not given.

% Affinity Relative to Wild Type [%] | Compound
52 | Fab 2G12 mutant H D100bA
120 | Fab 2G12 mutant H D100dA
1.1 | Fab 2G12 mutant H E75A
103 | Fab 2G12 mutant H E76A
0.1 | Fab 2G12 mutant H F77A
20 | Fab 2G12 mutant H G96A
0.4 | Fab 2G12 mutant H H32A
0.5 | Fab 2G12 mutant H I19A
51 | Fab 2G12 mutant H K82bA
170 | Fab 2G12 mutant H K95A
130 | Fab 2G12 mutant H L74A
0.1 | Fab 2G12 mutant H L100A
0.1 | Fab 2G12 mutant H N100cA
0.1 | Fab 2G12 mutant H P113A
0.1 | Fab 2G12 mutant H P113S
130 | Fab 2G12 mutant H R39A
170 | Fab 2G12 mutant H R39Q
0.1 | Fab 2G12 mutant H R57A
59 | Fab 2G12 mutant H R83A
0.1 | Fab 2G12 mutant H S54A
0.1 | Fab 2G12 mutant H S100aA
2 | Fab 2G12 mutant H T33A
190 | Fab 2G12 mutant H T52aA
0.1 | Fab 2G12 mutant H T55A
0.1 | Fab 2G12 mutant H V84A
2 | Fab 2G12 mutant H Y56A
0.1 | Fab 2G12 mutant H Y79A
120 | Fab 2G12 mutant L G93A
0.1 | Fab 2G12 mutant L S28A
50 | Fab 2G12 mutant L W32A
